Source: article PMC6303327

Tests used:
[1] = target: Rfa3 OB domain (DBD-E), residues 1-99, without the C-terminal trimerisation helix (S. cerevisiae) (UniProt P26755); assay: MST; 50 nM NT-495-labelled DBD-E mixed with equal volumes of a dilution series of DBD-A; 20 mM Tris pH 7.5, 150 mM NaCl, 0.5 mM TCEP, 0.01% Tween-20, 0.1 mg/ml BSA; 25 °C; no ssDNA (black trace); apparent EC50 from the Hill equation
[2] = target: Rfa3 OB domain (DBD-E), residues 1-99, without the C-terminal trimerisation helix (S. cerevisiae) (UniProt P26755); assay: MST; as the MST without ssDNA, but in the presence of excess ssDNA (dT10 at 2 µM in each binding reaction; grey trace); replicated twice; apparent EC50 from the Hill equation

Rfa3 OB domain (DBD-E), residues 1-99, without the C-terminal trimerisation helix (S. cerevisiae), sequence (P26755 1-99): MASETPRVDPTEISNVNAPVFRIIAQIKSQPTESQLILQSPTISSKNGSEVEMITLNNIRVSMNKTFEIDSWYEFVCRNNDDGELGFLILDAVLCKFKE
Rfa1 DNA-binding domain A (DBD-A), residues 178-294, sequence (P22336 178-294): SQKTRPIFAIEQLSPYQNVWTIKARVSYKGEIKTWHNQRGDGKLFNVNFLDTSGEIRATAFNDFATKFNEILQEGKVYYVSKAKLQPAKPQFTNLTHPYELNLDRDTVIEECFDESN

Substance | EC50 [1] [µM] | EC50 [2] [µM]
Rfa1 DNA-binding domain A (DBD-A), residues 178-294 (from UniProt P22336 178-294) (domain or fragment) | 96 | 84
Rfa1 DNA-binding domain A (DBD-A), residues 178-294, phosphomimetic S178D mutant (from UniProt P22336 178-294) (domain or fragment) | 23 | 25
